Reference: patent US20180258140A1, “NEW DODECAPEPTIDES AND MICROCAPSULES FUNCTIONALISED WITH THEM TARGETED TO FIBROBLASTS” (Infinitec Activos, S.L., priority 2015, published 2018)
*: point of attachment. Palmitoyl = CCCCCCCCCCCCCCCC(=O)*

tested on: human keratinocytes; assay: Cytotoxicity assay (MTT) in keratinocytes; format: cell-based; conditions: positive control 0.1% SDS, 48h incubation
Description: (§1) Human dermal fibroblasts and human keratinocytes were used. The isolated cells were cultured in DMEM culture medium supplemented with 10% FCS and were incubated at 37° C. for maintenance treatment. Untreated cells were used as negative control. The positive control was 0.1% SDS. The microcapsules as obtained in Example 2 were tested in the DMEM culture medium at 0.03%. These weight percentages refer to the weight of the microcapsule in relation to the total weight. Cells were seeded at 20000 cells per well in a 96-well plate. 24 hours after seeding, cells were incubated under the conditions described above. After 48h of incubation at 37° C., the culture medium was removed and the MTT reagent was added. Cells were incubated 2 hours at 37° C. DMSO was then added and the absorbance of the formed formazan salt was measured at A 570 nm. Lower absorbance values correspond to cells with lower metabolic activity, which correlates with an increased damage and, therefore, with an increased cytotoxic effect. Thus, the amount of living cells is proportional to the amount of formazan produced.

With `CCCCCCCCCCCCOS(=O)(=O)[O-].[Na+]` [SDS, Sodium dodecyl sulfate] the “Keratinocytes % cell viability” value was 12%.

molecular target: FGFR2 Kinase (Homo sapiens, UniProt P21802); assay: FGFR2 kinase inhibition; format: biochemical; conditions: percent inhibition of control enzyme activity; test concentration not given
Sequence (P21802 22-821): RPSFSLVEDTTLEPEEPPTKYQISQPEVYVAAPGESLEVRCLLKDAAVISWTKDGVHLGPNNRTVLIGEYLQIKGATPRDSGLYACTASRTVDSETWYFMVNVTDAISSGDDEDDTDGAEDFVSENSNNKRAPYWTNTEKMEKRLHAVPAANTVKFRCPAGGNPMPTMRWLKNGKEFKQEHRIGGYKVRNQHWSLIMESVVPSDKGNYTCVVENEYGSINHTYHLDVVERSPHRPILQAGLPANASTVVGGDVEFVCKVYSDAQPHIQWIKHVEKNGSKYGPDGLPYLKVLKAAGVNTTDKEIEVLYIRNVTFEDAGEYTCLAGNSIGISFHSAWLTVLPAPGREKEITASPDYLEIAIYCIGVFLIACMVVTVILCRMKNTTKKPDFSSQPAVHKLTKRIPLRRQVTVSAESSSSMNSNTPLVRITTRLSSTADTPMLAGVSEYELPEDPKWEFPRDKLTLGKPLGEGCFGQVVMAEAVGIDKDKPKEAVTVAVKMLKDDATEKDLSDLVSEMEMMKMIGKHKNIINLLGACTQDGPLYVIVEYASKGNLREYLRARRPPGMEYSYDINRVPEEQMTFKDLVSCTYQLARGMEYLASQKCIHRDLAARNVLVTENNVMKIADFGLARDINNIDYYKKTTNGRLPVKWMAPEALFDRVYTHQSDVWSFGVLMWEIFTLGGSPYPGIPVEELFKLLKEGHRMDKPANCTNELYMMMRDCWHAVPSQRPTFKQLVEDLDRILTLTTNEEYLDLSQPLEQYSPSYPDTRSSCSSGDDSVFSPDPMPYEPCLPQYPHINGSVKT
Description: [The source words this procedure for another target and reports this target under the same test.] Evaluation of the effects of the dodecapeptides of the invention on the activity of the human FGFR1 kinase were quantified by measuring the phosphorylation of the substrate Ulight-CAGAGAIETDKEYYTVKD (JAK1) using a human recombinant enzyme expressed in insect cells and the LANCE® detection method using the protocol described below:
The peptide to be tested, the reference compound or water (control) are mixed with the enzyme (0.252 ng) in a buffer containing 40 mM Hepes/Tris (pH 7.4), 0.8 mM EGTA/Tris, 8 mM MgCl2, 1.6 mM DTT and 0.008% Tween 20 (For control basal measurements, the enzyme is omitted from the reaction mixture). Thereafter, the reaction is initiated by adding 100 nM of the substrate Ulight-CAGAGAIETDKEYYTVKD (SEQ ID NO: 13) (JAK-1 peptide) and 100 μM ATP, and the mixture is incubated for 60 min at room temperature. Following incubation, the reaction is stopped by adding 13 mM EDTA. After 5 min, the anti-phospho-PT66 antibody labeled with europium chelate (EU-W1024-labeled Anti-Phosphotyrosine Antibody PT66, from Perkin Elmer) is added. After 60 more min, the fluorescence transfer is measured at λex=337 nm, λem=620 nm and λem=665 nm using a microplate reader (Envision, Perkin Elmer).
The enzyme activity is determined by dividing the signal measured at 665 nm by that measured at 620 nm (ratio). The results are expressed as a percent inhibition of the control enzyme activity.
The standard inhibitory reference compound is staurosporine, which is tested in each experiment at several concentrations to obtain an inhibition curve from which its IC50 value is calculated.
Results showing an inhibition (or stimulation for assays run in basal conditions) higher than 20% are considered to represent significant effects of the peptides of the invention.

Compared with “Palm-Lys-Phe-Asn-Leu-Pro-Leu-Gly-Asn-Ala-Lys-Lys-Pro-NH2 (Palmitoyl-KFNLPLGNAKKP-NH2; SMILES CCCCCCCCCCCCCCCC(=O)N[C@@H](CCCCN)C(=O)N[C@@H](Cc1ccccc1)C(=O)N[C@@H](CC(N)=O)C(=O)N[C@@H](CC(C)C)C(=O)N1CCC[C@H]1C(=O)N[C@@H](CC(C)C)C(=O)NCC(=O)N[C@@H](CC(N)=O)C(=O)N[C@@H](C)C(=O)N[C@@H](CCCCN)C(=O)N[C@@H](CCCCN)C(=O)N1CCC[C@H]1C(N)=O) [Peptide 9]”, “Palm-Lys-Phe-Asn-Leu-Pro-Leu-Gly-Asn-Tyr-Lys-Ala-Pro-NH2 (Palmitoyl-KFNLPLGNYKAP-NH2; SMILES CCCCCCCCCCCCCCCC(=O)N[C@@H](CCCCN)C(=O)N[C@@H](Cc1ccccc1)C(=O)N[C@@H](CC(N)=O)C(=O)N[C@@H](CC(C)C)C(=O)N1CCC[C@H]1C(=O)N[C@@H](CC(C)C)C(=O)NCC(=O)N[C@@H](CC(N)=O)C(=O)N[C@@H](Cc1ccc(O)cc1)C(=O)N[C@@H](CCCCN)C(=O)N[C@@H](C)C(=O)N1CCC[C@H]1C(N)=O) [Peptide 11]” is lower in “FGFR2 Kinase % Inhibition” value: 99.4% for the first, 89.9% for the second.

First: Palm-Lys-Phe-Asn-Leu-Pro-Leu-Ala-Asn-Tyr-Lys-Lys-Pro-NH2 (Palmitoyl-KFNLPLANYKKP-NH2; SMILES CCCCCCCCCCCCCCCC(=O)N[C@@H](CCCCN)C(=O)N[C@@H](Cc1ccccc1)C(=O)N[C@@H](CC(N)=O)C(=O)N[C@@H](CC(C)C)C(=O)N1CCC[C@H]1C(=O)N[C@@H](CC(C)C)C(=O)N[C@@H](C)C(=O)N[C@@H](CC(N)=O)C(=O)N[C@@H](Cc1ccc(O)cc1)C(=O)N[C@@H](CCCCN)C(=O)N[C@@H](CCCCN)C(=O)N1CCC[C@H]1C(N)=O) [Peptide 7]
Second: Palm-Lys-Ala-Asn-Leu-Pro-Leu-Gly-Asn-Tyr-Lys-Lys-Pro-NH2 (Palmitoyl-KANLPLGNYKKP-NH2; SMILES CCCCCCCCCCCCCCCC(=O)N[C@@H](CCCCN)C(=O)N[C@@H](C)C(=O)N[C@@H](CC(N)=O)C(=O)N[C@@H](CC(C)C)C(=O)N1CCC[C@H]1C(=O)N[C@@H](CC(C)C)C(=O)NCC(=O)N[C@@H](CC(N)=O)C(=O)N[C@@H](Cc1ccc(O)cc1)C(=O)N[C@@H](CCCCN)C(=O)N[C@@H](CCCCN)C(=O)N1CCC[C@H]1C(N)=O) [Peptide 2]
The “FGFR2 Kinase % Inhibition” value of the first is higher: 98.4% for the first, 96.3% for the second.

First: Palm-Lys-Phe-Asn-Leu-Pro-Leu-Gly-Asn-Tyr-Lys-Lys-Ala-NH2 (Palmitoyl-KFNLPLGNYKKA-NH2; SMILES CCCCCCCCCCCCCCCC(=O)N[C@@H](CCCCN)C(=O)N[C@@H](Cc1ccccc1)C(=O)N[C@@H](CC(N)=O)C(=O)N[C@@H](CC(C)C)C(=O)N1CCC[C@H]1C(=O)N[C@@H](CC(C)C)C(=O)NCC(=O)N[C@@H](CC(N)=O)C(=O)N[C@@H](Cc1ccc(O)cc1)C(=O)N[C@@H](CCCCN)C(=O)N[C@@H](CCCCN)C(=O)N[C@@H](C)C(N)=O) [Peptide 12]
Second: Palm-Lys-Phe-Asn-Leu-Pro-Leu-Gly-Asn-Tyr-Lys-Lys-Pro-NH2 (Palmitoyl-KFNLPLGNYKKP-NH2; SMILES CCCCCCCCCCCCCCCC(=O)N[C@@H](CCCCN)C(=O)N[C@@H](Cc1ccccc1)C(=O)N[C@@H](CC(N)=O)C(=O)N[C@@H](CC(C)C)C(=O)N1CCC[C@H]1C(=O)N[C@@H](CC(C)C)C(=O)NCC(=O)N[C@@H](CC(N)=O)C(=O)N[C@@H](Cc1ccc(O)cc1)C(=O)N[C@@H](CCCCN)C(=O)N[C@@H](CCCCN)C(=O)N1CCC[C@H]1C(N)=O) [Peptide 1]
The “FGFR2 Kinase % Inhibition” value of the first is lower: 90.1% for the first, 95.4% for the second.

First: Palm-Lys-Phe-Asn-Ala-Pro-Leu-Gly-Asn-Tyr-Lys-Lys-Pro-NH2 (Palmitoyl-KFNAPLGNYKKP-NH2; SMILES CCCCCCCCCCCCCCCC(=O)N[C@@H](CCCCN)C(=O)N[C@@H](Cc1ccccc1)C(=O)N[C@@H](CC(N)=O)C(=O)N[C@@H](C)C(=O)N1CCC[C@H]1C(=O)N[C@@H](CC(C)C)C(=O)NCC(=O)N[C@@H](CC(N)=O)C(=O)N[C@@H](Cc1ccc(O)cc1)C(=O)N[C@@H](CCCCN)C(=O)N[C@@H](CCCCN)C(=O)N1CCC[C@H]1C(N)=O) [Peptide 4]
Second: Palm-Lys-Phe-Asn-Leu-Ala-Leu-Gly-Asn-Tyr-Lys-Lys-Pro-NH2 (Palmitoyl-KFNLALGNYKKP-NH2; SMILES CCCCCCCCCCCCCCCC(=O)N[C@@H](CCCCN)C(=O)N[C@@H](Cc1ccccc1)C(=O)N[C@@H](CC(N)=O)C(=O)N[C@@H](CC(C)C)C(=O)N[C@@H](C)C(=O)N[C@@H](CC(C)C)C(=O)NCC(=O)N[C@@H](CC(N)=O)C(=O)N[C@@H](Cc1ccc(O)cc1)C(=O)N[C@@H](CCCCN)C(=O)N[C@@H](CCCCN)C(=O)N1CCC[C@H]1C(N)=O) [Peptide 5]
The “FGFR2 Kinase % Inhibition” value of the first is lower: 87.5% for the first, 91.1% for the second.

Compared with “Palm-Lys-Phe-Asn-Leu-Pro-Ala-Gly-Asn-Tyr-Lys-Lys-Pro-NH2 (Palmitoyl-KFNLPAGNYKKP-NH2; SMILES CCCCCCCCCCCCCCCC(=O)N[C@@H](CCCCN)C(=O)N[C@@H](Cc1ccccc1)C(=O)N[C@@H](CC(N)=O)C(=O)N[C@@H](CC(C)C)C(=O)N1CCC[C@H]1C(=O)N[C@@H](C)C(=O)NCC(=O)N[C@@H](CC(N)=O)C(=O)N[C@@H](Cc1ccc(O)cc1)C(=O)N[C@@H](CCCCN)C(=O)N[C@@H](CCCCN)C(=O)N1CCC[C@H]1C(N)=O) [Peptide 6]”, “Palm-Lys-Phe-Ala-Leu-Pro-Leu-Gly-Asn-Tyr-Lys-Lys-Pro-NH2 (Palmitoyl-KFALPLGNYKKP-NH2; SMILES CCCCCCCCCCCCCCCC(=O)N[C@@H](CCCCN)C(=O)N[C@@H](Cc1ccccc1)C(=O)N[C@@H](C)C(=O)N[C@@H](CC(C)C)C(=O)N1CCC[C@H]1C(=O)N[C@@H](CC(C)C)C(=O)NCC(=O)N[C@@H](CC(N)=O)C(=O)N[C@@H](Cc1ccc(O)cc1)C(=O)N[C@@H](CCCCN)C(=O)N[C@@H](CCCCN)C(=O)N1CCC[C@H]1C(N)=O) [Peptide 3]” is lower in “FGFR2 Kinase % Inhibition” value: 98.8% for the first, 98.7% for the second.

Compared with “Palm-Lys-Phe-Asn-Leu-Pro-Leu-Gly-Ala-Tyr-Lys-Lys-Pro-NH2 (Palmitoyl-KFNLPLGAYKKP-NH2; SMILES CCCCCCCCCCCCCCCC(=O)N[C@@H](CCCCN)C(=O)N[C@@H](Cc1ccccc1)C(=O)N[C@@H](CC(N)=O)C(=O)N[C@@H](CC(C)C)C(=O)N1CCC[C@H]1C(=O)N[C@@H](CC(C)C)C(=O)NCC(=O)N[C@@H](C)C(=O)N[C@@H](Cc1ccc(O)cc1)C(=O)N[C@@H](CCCCN)C(=O)N[C@@H](CCCCN)C(=O)N1CCC[C@H]1C(N)=O) [Peptide 8]”, “Palm-Lys-Phe-Asn-Leu-Pro-Leu-Gly-Asn-Tyr-Ala-Lys-Pro-NH2 (Palmitoyl-KFNLPLGNYAKP-NH2; SMILES CCCCCCCCCCCCCCCC(=O)N[C@@H](CCCCN)C(=O)N[C@@H](Cc1ccccc1)C(=O)N[C@@H](CC(N)=O)C(=O)N[C@@H](CC(C)C)C(=O)N1CCC[C@H]1C(=O)N[C@@H](CC(C)C)C(=O)NCC(=O)N[C@@H](CC(N)=O)C(=O)N[C@@H](Cc1ccc(O)cc1)C(=O)N[C@@H](C)C(=O)N[C@@H](CCCCN)C(=O)N1CCC[C@H]1C(N)=O) [Peptide 10]” is lower in “FGFR2 Kinase % Inhibition” value: 98.8% for the first, 93.4% for the second.

tested on: Human dermal fibroblasts; assay: Cytotoxicity assay (MTT) in fibroblasts; format: cell-based; conditions: positive control 0.1% SDS, 48h incubation
Description: as §1

`CCCCCCCCCCCCOS(=O)(=O)[O-].[Na+]` [SDS, Sodium dodecyl sulfate] was tested, and the “Fibroblasts % cell viability” value was 25.0%.
